Results on 2 substances are retold here after patent US20260001920A1.

Common to all, as to assay: cell-based or functional assay
The target in test [1] is RpPpsR2 mutant (with Q105S and L137E introduced) (NLSx3-MS2-RpPpsR2 mutant) (bacteriophage MS2; Rhodopseudomonas palustris) (UniProt P03612).
Test [2] concerns the target RpPpsR2 mutant (with Q105T and L137E introduced) (NLSx3-MS2-RpPpsR2 mutant) (bacteriophage MS2; Rhodopseudomonas palustris) (UniProt P03612).
The target of test [3] is RpPpsR2 domain-modified body D1-D2 (del C 15) (NLSx3-MS2-RpPpsR2 mutant) (bacteriophage MS2; Rhodopseudomonas palustris) (UniProt P03612).
Test [4] concerns the target RpPpsR2 domain-modified body D4-D1-D2 (NLSx3-MS2-RpPpsR2 mutant) (bacteriophage MS2; Rhodopseudomonas palustris) (UniProt P03612).
Test [5] concerns the target RpPpsR2 mutant L110A (NLSx3-MS2-RpPpsR2 mutant) (bacteriophage MS2; Rhodopseudomonas palustris) (UniProt P03612).

For “RpBphP1 mutant (with Q502A and E513A introduced) (NLSx3-RpBphP1 mutant-p65-HSF1)”, the values for the light-dependent activation (ratio of NIR signal intensity to Dark signal intensity), CPTS luminescence reporter in HEK293T cells in test [1] and in test [2] were 10 > and over 10 times, respectively.
“wild-type RpBphP1 (NLSx3-RpBphP1-p65-HSF1)”: the results for the light-dependent activation (NIR against Dark), CPTS luminescence reporter in HEK293T cells in test [3] and in test [4] were 9.6 times and 7.2 times, respectively. In test [5], this substance returned a gene activation by light irradiation (NIR against Dark), CPTS luminescence reporter in HEK293T cells of 13.4 times.
